From the supplement of paper PMC10724198
± gives the standard deviation of the averaged measurements.

System: Saccharomyces cerevisiae
Assay: protein stability index of tFT-peptide fusion (C-terminal peptide) (PSI (0-1 scale)); higher = more stable (slower turnover)
Conditions: temperature: 30 C
Description: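 MPS profiling in S. cerevisiae of the yeast C-terminome library: the last 12 aa of each annotated ORF are fused to the C-terminus of a sfGFP-mCherry timer, after a GGGS linker. Cells are FACS-sorted into 8 mCherry/sfGFP bins and deep-sequenced. PSI runs from 0 (unstable) to 1 (stable); wild type and das1Δ backgrounds, two technical replicates each.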

[1] = genetic background: das1 deletion

Row | Sequence | protein stability index [1] | protein stability index (genetic background: wild type)
1 | INRRQTPLQSNA [CDC39 C-terminal 12 aa] | 0.7 ± 0.011 | 0.666 ± 0.011
2 | EEIVGRHSDSAT [YAP6 C-terminal 12 aa] | 0.6926 ± 0.0035 | 0.69 ± 0.011
3 | PPPPSRKCGTPK [LDB17 C-terminal 12 aa] | 0.713 ± 0.038 | 0.7238 ± 0.0025
4 | FHTLENHLKGNS [ADR1 C-terminal 12 aa] | 0.697 ± 0.02 | 0.731 ± 0.064
5 | SKFGSIFKKVFG [YGR237C C-terminal 12 aa] | 0.689 ± 0.017 | 0.775 ± 0.077
6 | KLAKPAPTSKLD [TDA4 C-terminal 12 aa] | 0.6901 ± 0.0021 | 0.692 ± 0.025
7 | FFFPLFLFLYHL [YHR180W-A C-terminal 12 aa] | 0.436 ± 0.0054 | 0.306 ± 0.0032
8 | LQVSQEFTTKTQ [NUP82 C-terminal 12 aa] | 0.676 ± 0.034 | 0.709 ± 0.048
9 | AKERLNPPSNRR [NIP1 C-terminal 12 aa] | 0.708 ± 0.014 | 0.688 ± 0.02
10 | DLKIYLQQDESL [YEL023C C-terminal 12 aa] | 0.709 ± 0.028 | 0.672 ± 0.015
11 | RTAYILMYQKRN [UBP3 C-terminal 12 aa] | 0.782 ± 0.014 | 0.1351 ± 0.00015
12 | QELISLIDVINQ [RNH203 C-terminal 12 aa] | 0.7225 ± 0.005 | 0.739 ± 0.035
13 | NDSDGTILIPDI [ZDS2 C-terminal 12 aa] | 0.6982 ± 0.0057 | 0.713 ± 0.041
14 | KILDEINLDRIK [HEM3 C-terminal 12 aa] | 0.689 ± 0.0094 | 0.681 ± 0.052
15 | VPDIPPPPALVA [NUP42 C-terminal 12 aa] | 0.632 ± 0.034 | 0.6989 ± 0.0048
16 | AELILETSYDKF [MRX1 C-terminal 12 aa] | 0.729 ± 0.011 | 0.722 ± 0.055
17 | LPIWDPMGALAK [LAP3 C-terminal 12 aa] | 0.703 ± 0.0072 | 0.739 ± 0.06
18 | NPVGVPNDDHHH [COX4 C-terminal 12 aa] | 0.724 ± 0.0031 | 0.668 ± 0.022
19 | KCLDLLKTELGE [POC4 C-terminal 12 aa] | 0.699 ± 0.018 | 0.6935 ± 0.0043
20 | LSDYLSHDFASC [YNL040W C-terminal 12 aa] | 0.688 ± 0.011 | 0.694 ± 0.04
21 | SVLQRRQSTQNS [HAL1 C-terminal 12 aa] | 0.719 ± 0.0076 | 0.691 ± 0.06

Row | Sequence | protein stability index [1] | protein stability index (genetic background: wild type)
22 | NLEFETEHNVTN [NDC80 C-terminal 12 aa] | 0.677 ± 0.012 | 0.708 ± 0.013
23 | RQRRLQAAGRWF [PCP1 C-terminal 12 aa] | 0.716 ± 0.014 | 0.6854 ± 0.0044
24 | VPYAKILDQCIL [YGL230C C-terminal 12 aa] | 0.693 ± 0.027 | 0.721 ± 0.021
25 | VDESWLPETYKK [IRC22 C-terminal 12 aa] | 0.7425 ± 0.0014 | 0.711 ± 0.022
26 | PLALFYSHLILL [YGR151C C-terminal 12 aa] | 0.6 ± 0.019 | 0.27 ± 0.016
27 | TRMNVSHYYIIT [YOL166C C-terminal 12 aa] | 0.6573 ± 0.0038 | 0.641 ± 0.019
28 | CTFIYFLYFSLF [YBL070C C-terminal 12 aa] | 0.325 ± 0.0072 | 0.288 ± 0.03
29 | DFIKNPNDYFKQ [BEM2 C-terminal 12 aa] | 0.73319 ± 0.00064 | 0.729 ± 0.1
30 | KFSSTSRYMQYN [RPT1 C-terminal 12 aa] | 0.705 ± 0.016 | 0.642 ± 0.017
31 | GYCKVHPVSDSK [ASI1 C-terminal 12 aa] | 0.706 ± 0.0072 | 0.656 ± 0.036
32 | ERNGWKFFFKEV [YHR137C-A C-terminal 12 aa] | 0.69374 ± 0.00051 | 0.6597 ± 0.0014
33 | FLSNEPTFLGCV [YPL135C-A C-terminal 12 aa] | 0.72 ± 0.018 | 0.722 ± 0.033
34 | NSKVMNIKALDH [MRPL10 C-terminal 12 aa] | 0.6653 ± 0.0031 | 0.6725 ± 0.0055
35 | VTRAAESLGFTV [MIP6 C-terminal 12 aa] | 0.6997 ± 0.0036 | 0.69562 ± 4.2e-05
36 | ENKNWSIITPSG [YBL086C C-terminal 12 aa] | 0.68945 ± 7e-05 | 0.684 ± 0.018
37 | EGVGCRYPVVLI [YDR467C C-terminal 12 aa] | 0.7038 ± 0.0063 | 0.666 ± 0.019
38 | ALSEYMENTSGL [RSC9 C-terminal 12 aa] | 0.696 ± 0.059 | 0.728 ± 0.014
39 | AFRSLQKSKKKK [PKH3 C-terminal 12 aa] | 0.717 ± 0.042 | 0.793 ± 0.034
40 | QSATKNQQNQGK [SSQ1 C-terminal 12 aa] | 0.679 ± 0.011 | 0.656 ± 0.01
41 | QVKLSILKSLGF [UBC7 C-terminal 12 aa] | 0.702 ± 0.02 | 0.657 ± 0.0096
42 | IHSGYTNISYTI [MCM16 C-terminal 12 aa] | 0.709 ± 0.0077 | 0.7012 ± 0.0067

Row | Sequence | protein stability index [1] | protein stability index (genetic background: wild type)
43 | GLRVANPDSDPE [YDR239C C-terminal 12 aa] | 0.7 ± 0.0077 | 0.721 ± 0.081
44 | KVSPADAAKKAL [RPS26A C-terminal 12 aa] | 0.704 ± 0.0096 | 0.718 ± 0.02
45 | WQTLVMILQESG [NPL4 C-terminal 12 aa] | 0.392 ± 0.0077 | 0.444 ± 0.021
46 | DPNGILNPYKYI [DLD2 C-terminal 12 aa] | 0.708 ± 0.024 | 0.6117 ± 0.003
47 | FGQDGCLYIYNQ [YHR045W C-terminal 12 aa] | 0.713 ± 0.015 | 0.698 ± 0.021
48 | NPFEYENFINIE [YOR263C C-terminal 12 aa] | 0.7418 ± 0.0062 | 0.721 ± 0.052
49 | AVIVHSYTVQHM [TRM3 C-terminal 12 aa] | 0.695 ± 0.032 | 0.632 ± 0.046
50 | TRRVAARKGKLS [UTR5 C-terminal 12 aa] | 0.686 ± 0.0091 | 0.32 ± 0.014
51 | SSLSFLSSFVDI [VAM10 C-terminal 12 aa] | 0.708 ± 0.025 | 0.702 ± 0.048
52 | YITTPSSSGHAL [YIL141W C-terminal 12 aa] | 0.716 ± 0.0081 | 0.674 ± 0.027
53 | LMESEREARRLR [RPS28A C-terminal 12 aa] | 0.708 ± 0.01 | 0.6762 ± 0.0022
54 | LHVISKVAGKLF [SBH1 C-terminal 12 aa] | 0.703 ± 0.022 | 0.656 ± 0.014
55 | NGYFGYAPGHYP [OPT2 C-terminal 12 aa] | 0.6844 ± 0.0056 | 0.708 ± 0.031
56 | TISPYIRVCVST [YPR099C C-terminal 12 aa] | 0.3891 ± 0.0037 | 0.424 ± 0.018
57 | PADIATDHDITM [TAF8 C-terminal 12 aa] | 0.717 ± 0.013 | 0.685 ± 0.0044
58 | FAEYNRLSAIPV [LAM1 C-terminal 12 aa] | 0.447 ± 0.015 | 0.478 ± 0.02
59 | DDFKKAFREKRK [ALY1 C-terminal 12 aa] | 0.729 ± 0.013 | 0.676 ± 0.044
60 | TQEKLDSLLLMQ [LGE1 C-terminal 12 aa] | 0.702 ± 0.011 | 0.6982 ± 0.006
61 | FFTKLFKKKSSR [MSC3 C-terminal 12 aa] | 0.705 ± 0.02 | 0.6832 ± 0.0021
62 | NGLWEQEKTEKR [YKR041W C-terminal 12 aa] | 0.716 ± 0.025 | 0.733 ± 0.061
63 | TVPGDENKITKK [PDR12 C-terminal 12 aa] | 0.711 ± 0.017 | 0.654 ± 0.064

Row | Sequence | protein stability index [1] | protein stability index (genetic background: wild type)
64 | NYFIITCIGIIM [YPL261C C-terminal 12 aa] | 0.228 ± 0.029 | 0.247 ± 0.0067
65 | KTVSDEEYAYIV [APM2 C-terminal 12 aa] | 0.6901 ± 0.0029 | 0.707 ± 0.011
66 | SFFIYVNFTVYF [YCR001W C-terminal 12 aa] | 0.175 ± 0.036 | 0.178 ± 0.033
67 | DNPETKNGRENK [ECM10 C-terminal 12 aa] | 0.675 ± 0.016 | 0.6426 ± 0.00097
68 | YLEHQQIHGRVV [YHR145C C-terminal 12 aa] | 0.679 ± 0.017 | 0.691 ± 0.013
69 | IKDAIKNGTGLL [MET31 C-terminal 12 aa] | 0.677 ± 0.0075 | 0.678 ± 0.014
70 | FTPSNQSHGNFY [TEC1 C-terminal 12 aa] | 0.718 ± 0.015 | 0.662 ± 0.007
71 | CEYGTNAIDALI [YER091C-A C-terminal 12 aa] | 0.7311 ± 0.0014 | 0.6917 ± 0.0036
72 | KWGLSKKDGRQA [SLY41 C-terminal 12 aa] | 0.699 ± 0.034 | 0.7036 ± 0.0043
73 | EYDDDSGNQGVW [GRE1 C-terminal 12 aa] | 0.6914 ± 0.00077 | 0.739 ± 0.049
74 | CWENVRKTRAAK [PSO2 C-terminal 12 aa] | 0.692 ± 0.0083 | 0.6966 ± 0.005
75 | VSPYDYNHKRVS [DIB1 C-terminal 12 aa] | 0.69264 ± 0.00023 | 0.678 ± 0.035
76 | FIAQAEAEAETD [GRS1 C-terminal 12 aa] | 0.688 ± 0.014 | 0.669 ± 0.017
77 | ARIWKYKKIAPN [TUP1 C-terminal 12 aa] | 0.726 ± 0.0075 | 0.706 ± 0.0071
78 | VVVTGNLQILEH [UGP1 C-terminal 12 aa] | 0.678 ± 0.03 | 0.684 ± 0.019
79 | HFKTLVEAFTRN [VPS52 C-terminal 12 aa] | 0.709 ± 0.0082 | 0.714 ± 0.047
80 | LEFVRGGSRQFT [TIM44 C-terminal 12 aa] | 0.689 ± 0.0081 | 0.713 ± 0.02
81 | HAGTRPVLLLQK [YKL053W C-terminal 12 aa] | 0.694 ± 0.016 | 0.674 ± 0.04
82 | AQQNYRLWLSSF [ICY1 C-terminal 12 aa] | 0.7166 ± 0.0069 | 0.6246 ± 0.0033
